Data from patent US20130177528A1, “COMPOSITIONS AND METHODS FOR INHIBITING VIRAL INFECTION” (WESTERN UNIVERSITY OF HEALTH SCIENCES, priority 2011, published 2013).

What was measured:
[1] = test system: HSV-1 glycoproteins (gB, gD, gH-gL) mediated cell-to-cell fusion; assay: Virus-free HSV-1 glycoprotein-mediated cell-to-cell fusion assay (Example 12); assay type: cell-based, human
Method: FIG. 15A-B show the inhibition of HSV-1 glycoprotein-induced cell-to-cell fusion by CN and proposed model for CN-based anti-HSV-1 activity during cell entry. (A) In this experiment the naturally susceptible target human corneal fibroblasts (CF) cells expressing gD-receptors and luciferase gene were pre-incubated with 1 μM contortrostatin (CN) and mixed in 1:1 ratio with the effector Chinese hamster ovary (CHO-K1) cells expressing herpes simplex virus type-1 (HSV-1) glycoproteins (gB, gD, gH-gL) along with T7 plasmid (white bar indicated as treated [Tr]). In parallel, CN-untreated CF cells were similarly mixed with effector cells as positive control (+; black bar). The target CF cells co-cultured with effector cells devoid of HSV-1 glycoproteins were considered as negative control (−; grey bar). Membrane fusion as a means of viral spread was detected by monitoring luciferase activity. Relative luciferase units (RLUs) were determined using a Sirius luminometer (Berthoid Detection Systems, Titertek Instruments, Inc., Huntsville, Ala., USA). Error bars represent SD. (B) A cartoon illustrates the CN-mediated HSV-1 inhibition that might affect three major steps (a-c) that are involved during HSV-1 entry. (a) CN (presented by hatching) binding to host cell surface integrin (presented by α and β subunits) may affect HSV -1 glycoprotein H (gH) binding to integrins. […]

[2] = test system: HSV-2 (333 gJ-reporter virus); assay: HSV-2 infection of HeLa cells, ONPG assay (Example 4); assay type: cell-based; details: virus pre-incubated; starting concentration 1 mg/ml
Method: In this experiment different clinical strains of HSV-1 (F, G, and MP strains of HSV-1 [37] at 25 pfu/cell) were either pre-incubated with 1×PBS (control) or with CN at the concentrations indicated in FIG. 8, panel A for 90 min at room temperature. After 90 min of incubation the two pools of viruses were incubated with Nectin-1 receptor expressing CHO Igβ cells that express β-galactosidase upon viral entry as described. The viral infection blocking was measured by ONPG assay (FIG. 8, panel A). Similar experiment was conducted using Lac Z encoded HSV-2 (333 gJ-reporter virus). HSV-2 is a genital herpes virus. […] Each value shown is the mean of three or more determinations (±SD).

CMV Ad169 = assay: CMV plaque assay in RPE cells (Example 5); assay type: cell-based, Cytomegalovirus; details: virus pre-incubated with 1 mg/ml for 120 min, MOI 0.01, 3 days
Method: Viral plaque assay. Confluent layers of RPE cells in glass bottom dishes were infected with CMV Ad169 strain in the presence and absence of CN at 0.01 PFU per cell for 2 hrs. This was followed by extensive but gentle washing three times with DMEM media followed by feeding cells with DMEM media. The cells were then incubated at 37° C. for thee days. Cells were then fixed using fixative buffer after 3 days for 30-45 min. The cells were washed three times with 1X PBS before RPE cells stained for Giemsa satin for additional 45 minutes. This was followed by 10 times washing with 1 X PBS to remove excess stain. The number of plaques formed were then visualized and quantified as indicated. In another protocol, confluent layers of HeLa cells (approximately 10^6) in six-well dishes were infected with HSV-1 (804) strain at 0.01 PFU/celI in presence and absence of CN for 2 h at 37° C. After removal of inoculum, monolayers were overlaid with DMEM comaining 2.5% heat-inactivated calf serum and incubated at 37° C. At 24 h, the cells were fixed by using fixative buffer (2% formaldehyde and 0.2% glutaradehyde) at room temperature for 20 min, followed by Giemsa staining for 45 min. The cells were again washed 5× in PBS and the numbers of plaques were counted. The images were taken by using Nikon D-Eclipse-C1 microscope (Nikon Instruments Inc., Melville, N.Y., USA).
A wild type strain of CMV Ad169 was used. The virus was again either pre-incubated with 1×PBS (control) or with CN at 1 mg/ml for 120 min at room temperature. After 120 min of incubation the two pools of viruses were incubated on target retinal pigment epithelial (RPE) cells at MOI (multiplicity of infection; MOI) of 0.01 for additional 2 hrs at 37° C. This was followed by washing to remove unbound viruses and feeding cells with fresh DMEM media. The plates were kept for 3 days before the plaque formation was visually observed (upper panels) and quantified (lower panel) after fixing cells with buffer (FIG. 9). […] Based on visual evidence, the plaque formation was quantified in each group and was scored (lower panel).

[3] = test system: β-galactosidase-expressing recombinant Adenovirus; assay: Adenovirus infection of HeLa cells (Example 7); assay type: cell-based; details: pre-incubated 90 min
Method: HeLa cells were infected with a β-galactosidase-expressing recombinant Adenovirus were pre-incubated with CN at (1) the dilution indicated in FIG. 11, panel A (stock concentration 22 nM) or (2) the concentrations indicated in FIG. 11, panel B, or mock treated with 1 X phosphate saline buffer for 90 min at room temperature. After 12 hr, the cells were washed, permeabilized and incubated with ONPG substrate (3.0 mg/ml) for quantitation of β-galactosidase activity expressed from the input viral genome. Positive (Pos) infected with virus alone; Negative (Neg) uninfected control. The enzymatic activity was measured at an optical density of 410 nm (OD 410).

B1: contortrostatin (protein)
chain: DAPANPCCDAATCKLTTGSQCADGLCCDQCKFMKEGTVCRRARGDDLDDYCNGISAGCPRNPFHA
polykaryocyte formation ([1]; CN-treated target cells co-cultured with effector cells, data not shown): failed to form polykaryons | cell-to-cell fusion (luciferase activity, RLU) ([1]; target human CF treated with 1 μM, effector CHO-K1 cells expressing gB, gD, gH-gL, 1:1): impaired cell-to-cell fusion | HSV-2 infection of HeLa cells (dose response, ONPG assay) [2]: blocks infection | CMV cytopathic effect (CPE) (CMV Ad169): significantly lower cytopathic effect | CMV plaque formation (CMV Ad169): significantly reduced the plaque formation | size of CMV plaques (CMV Ad169): small compared to untreated CMV virions | Adenovirus infection of HeLa cells (β-galactosidase activity, OD 410) ([3]; 12 hr): blocks infection | IC50 ([3]; β-galactosidase read after 12 hr): 2.75 nM
